According to US20040146964A1 (ISIS INNOVATION, published 2004):
Where no end group is shown, it is not given here. [ ]: non-standard residue; d: D form. Hyp = O=C(O)[C@@H]1C[C@@H](O)CN1

Columns and labels:
[1] = molecular target: T1, VHL E3 ubiquitin ligase complex containing HA tagged human pVHL (human, UniProt P40337 1-213); test: VHL E3 interaction assay with 35S-labelled IVTT product
T1 construct: also called VHL E3 ligase; 786-0/VHL cell extract

mutant (Pro86His) pVHL [2] = molecular target: T2, mutant (Pro86His) pVHL (human, UniProt P40337 1-213); test: biotinylated peptide, after cell extract, capture on streptavidin beads
T2 construct: also called mutant pVHL
T2 sequence (P40337 whole entry P86H): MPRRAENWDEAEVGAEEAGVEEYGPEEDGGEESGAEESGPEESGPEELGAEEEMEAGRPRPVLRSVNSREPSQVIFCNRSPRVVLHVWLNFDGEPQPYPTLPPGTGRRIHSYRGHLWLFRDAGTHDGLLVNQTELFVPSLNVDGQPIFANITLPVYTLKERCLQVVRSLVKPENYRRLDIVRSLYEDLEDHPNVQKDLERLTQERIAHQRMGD
Procedure: (§1) The 19:WT polypeptide was either incubated with cell extract before the binding assay or was untreated.

[3] = molecular target: T3, C. elegans HIF P621G mutant (C. elegans, UniProt G5EGD2 1-719); test: anti-HA co-IP of IVTT products
T3 construct: also called ceHIF Pro621-Gly; pcDNA1cehif.P621G
T3 sequence: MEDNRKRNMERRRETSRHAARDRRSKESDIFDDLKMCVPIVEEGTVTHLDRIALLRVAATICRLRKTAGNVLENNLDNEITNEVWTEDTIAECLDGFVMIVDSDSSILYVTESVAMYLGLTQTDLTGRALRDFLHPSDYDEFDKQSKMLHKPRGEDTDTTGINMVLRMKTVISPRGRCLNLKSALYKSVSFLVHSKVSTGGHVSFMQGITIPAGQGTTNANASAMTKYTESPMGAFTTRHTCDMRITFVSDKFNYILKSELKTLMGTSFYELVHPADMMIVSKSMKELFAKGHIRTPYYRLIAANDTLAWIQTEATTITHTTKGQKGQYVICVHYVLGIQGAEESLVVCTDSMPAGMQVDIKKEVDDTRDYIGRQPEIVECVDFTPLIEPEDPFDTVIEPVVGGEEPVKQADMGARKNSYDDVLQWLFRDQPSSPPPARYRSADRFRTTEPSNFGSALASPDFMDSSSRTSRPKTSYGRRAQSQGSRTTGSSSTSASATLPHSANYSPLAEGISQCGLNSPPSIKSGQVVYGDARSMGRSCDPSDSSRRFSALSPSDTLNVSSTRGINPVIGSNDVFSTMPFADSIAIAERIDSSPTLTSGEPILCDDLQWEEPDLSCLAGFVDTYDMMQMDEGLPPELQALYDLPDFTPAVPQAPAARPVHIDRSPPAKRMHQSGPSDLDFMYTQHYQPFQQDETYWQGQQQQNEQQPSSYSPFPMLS
Procedure: (§2) For interaction assays 1 μl of each programmed lysate was mixed in EBC buffer at 4° C. for 1 hr before anti-HA immunoprecipitation as described in Cockman et al. Pretreatment of ceHIF with worm extract was for 30 min at 25° C. with 10 μI of extract derived by hypotonic extraction of a worm homogenate in 20 mM Tris pH7.5, 5 mMKCl, 1.5 MgCl2, 1 mMDTT.

[4] = molecular target: T4, C. elegans HIF-α homologue, wild type (C. elegans, UniProt G5EGD2 1-719); test: anti-HA co-IP of reticulocyte IVTTs, ceHIF pre-treated with worm extract
T4 construct: 35S-labelled reticulocyte IVTT from pcDNA1cehif; also called ceHIF; HIF-1 (C. elegans)
T4 sequence: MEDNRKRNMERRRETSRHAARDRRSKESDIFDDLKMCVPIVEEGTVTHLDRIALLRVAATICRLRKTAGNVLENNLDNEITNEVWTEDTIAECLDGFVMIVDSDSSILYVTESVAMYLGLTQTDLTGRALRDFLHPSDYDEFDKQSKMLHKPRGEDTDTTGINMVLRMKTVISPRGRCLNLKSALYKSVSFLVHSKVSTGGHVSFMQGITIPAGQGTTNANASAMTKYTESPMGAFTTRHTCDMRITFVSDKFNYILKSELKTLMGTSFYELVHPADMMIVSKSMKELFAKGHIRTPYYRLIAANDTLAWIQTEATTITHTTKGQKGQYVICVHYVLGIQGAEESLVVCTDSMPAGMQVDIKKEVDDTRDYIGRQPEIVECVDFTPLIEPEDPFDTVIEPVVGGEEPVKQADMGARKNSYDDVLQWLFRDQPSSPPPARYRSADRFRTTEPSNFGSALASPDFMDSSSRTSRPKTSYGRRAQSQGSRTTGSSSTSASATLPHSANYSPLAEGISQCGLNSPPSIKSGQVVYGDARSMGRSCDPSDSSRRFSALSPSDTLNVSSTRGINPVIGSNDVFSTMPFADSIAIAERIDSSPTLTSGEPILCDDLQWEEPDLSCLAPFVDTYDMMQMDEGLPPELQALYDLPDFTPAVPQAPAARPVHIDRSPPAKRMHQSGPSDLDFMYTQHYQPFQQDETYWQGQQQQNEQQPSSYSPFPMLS
Procedure: as §2

mutant (Pro86His) pVHL [5] = molecular target: T2, mutant (Pro86His) pVHL; test: biotinylated peptide capture on streptavidin beads
Procedure: as §1

T1 sequence (P40337 whole entry, one chain of several): as the sequence (P40337 whole entry P86H) above, with H86P counted along it

PFSTQDTDLDLEMLAGYIPMDDDFQLRSFDQLSP (other) [tat-CODD proline mutant (HIF-1α 549-582/P564G)]
binding result [1]: no binding

DLDLEMLAPYIPMDDDFQL (also: biotinylated version used in pVHL capture assays, also called 19:WT; 19 WT) [synthetic polypeptide of HIF-1α residues 556-574, unmodified]
binding result (mutant (Pro86His) pVHL [2]): no binding

B1: c-terminal HA tagged ceVHL (other, not shown: small tags and cut ends)
chain: MSDGSMDDDGRLFPDLGSSTHDNREIRVRFLNRCAYPVDVFWLNPSKQPTKYGTLAQKKYLDIKTFKDHPWVARRSFDGCKVLVNEKEVFWPEPAPRMNLIVRNHCVITMKVQSLREIAGRSFLRHNPTEVPNKIKGLPRELQFEVKHFLDRKQEYSEIVCRSIPPPGPQRPQQ
notes: also called ceVHL-HA
binding result [3]: no binding
binding result [4]: binds

B2: tat-NODD proline mutant (HIF-1α 343-417/P402A) (other)
chain: SGIIQHDLIFSLQQTECVLKPVESSDMKMTQLFTKVESEDTSSLFDKLKKEPDALTLLAAAAGDTIISLDFGSND
binding result [1]: no binding

DLDLEMLA[Hyp]YIPMDDDFQL (also: biotinylated version used in pVHL capture assays, also called 19:Pro564Hyp; B19Hyp)
binding result (mutant (Pro86His) pVHL [5]): no binding
